US20230398116A1, “Agent for reversing resistance to anticancer drugs” (Y'S AC CO., LTD., priority 2020, published 2023)

T1: IL-26 (Homo sapiens, UniProt Q9NPH9)
T1 sequence (Q9NPH9 22-171): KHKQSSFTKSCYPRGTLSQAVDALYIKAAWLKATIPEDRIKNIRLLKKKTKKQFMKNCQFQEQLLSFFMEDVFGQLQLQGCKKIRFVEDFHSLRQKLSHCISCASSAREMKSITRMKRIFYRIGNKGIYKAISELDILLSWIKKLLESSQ


How the values were obtained:
IL-26 [1] = target: T1, IL-26; assay: ICAM-1 expression analysis of COLO205 (neutralizing activity of IL-26); type: cell-based; design: host or cells: added exogenously to COLO205 cells; details: COLO205, recombinant human IL-26 monomer 20 ng/mL, 24 hours, flow cytometry (MFI)
Description: COLO205 was seeded at 5×10^4 cells/well in a 96-well flat bottom plate, and stimulated with recombinant human IL-26 monomer (20 ng/mL) in the presence or absence of control human IgG or anti-human IL-26 antibody. After 24 hours of culture, the cells were collected and washed with ice-cold PBS (FCM buffer) containing 1% FBS and 0.1% sodium azide. Thereafter, a solution prepared by diluting a PE-labeled mouse anti-human ICAM-1 monoclonal antibody (clone 15.2, catalog number 50-0549-T100) of Bay bioscience (Kobe, Japan) or a PE-labeled mouse Igl,k isotype control monoclonal antibody (clone MOPC-21, catalogue number 400114) of BioLegend with FCM buffer to 5 μg/mL, was added at 50 μL/sample, and the mixture was allowed to stand at 4° C. for 25 minutes. Thereafter, the cells were washed with ice-cold FCM buffer, then measured with FACSCalibur, and the obtained data was analyzed with FlowJo.

IL-26 [2] = target: T1, IL-26; assay: MTT assay of HUVECs stimulated with IL-26 (neutralizing activity of IL-26); type: cell-based; design: purchased R&D Systems; host or cells: added exogenously to HUVECs; details: HUVECs, IL-26 10 ng/mL, 48 hours, MTT assay
Description: Human and mouse breast cancer cells (1×10^4) were cultured in 10% FCS containing RPMI1640 medium on a 96-well flat bottom plate (Corning, Tewksbury, MA) at 37° C. for 24 hours, and then stimulated with IL-26 for 48 hours in the presence or absence of EGFR-TKI (gefitinib or erlotinib) at various concentrations, a signal inhibitor, and a neutralizing antibody. HUVECs were seeded in a 96-well flat bottom plate at 5×10^3 cells/well in a 2% FBS-containing EGM medium in which growth factors were reduced by half, and cultured at 37° C. for 12 hours. Thereafter, the medium was aspirated, and a recombinant human IL-26 dimer was adjusted to a final concentration of 10 ng/mL in a 2% FBS-containing EGM medium containing no growth factors, and added to the cells. The stimulation was started in the presence or absence of control human IgG and anti-human IL-26 antibodies, and the cells were cultured for 48 hours. Thereafter, a concentration of 20 μl or 1/10 of a 5 mg/ml MTT solution (Tetrazolium monosodium salt, WST-8) was added to each well, and the plate was allowed to stand for 1 hour. The absorbance at 450 nm/595 nm was measured using Microplate Reader (Bio-Rad, Hercules, CA) and data was analyzed with Microplate Manager 6 software (Bio-Rad).

[3] = Heterogeneous chronic GVHD model (NOG mice transplanted with human umbilical cord blood mononuclear cells); type: in vivo, mouse; details: for lung histopathology (inflammatory cell infiltration, fibrogenesis, collagen): eight weeks after transplantation, H&E and Azan-Mallory staining, FIG. 60
Description: On day −1, NOG mice were irradiated with a sublethal dose (100 cGy). On day 0, 5×10^6 human umbilical cord blood mononuclear cells were transplanted from the tail vein of NOG mice. Survival of the mice was assessed daily and body weight was measured twice a week. In an antibody treatment experiment, the control human IgG or anti-human IL-26 monoclonal antibody (the mouse antibody m69-10 and the humanized antibody h69-10A) was administered from day +28 of transplantation when clinical signs/symptoms of mild GVHD began to appear. The antibody solution was adjusted to a concentration of 1 mg/mL with sterile PBS, and 200 μL (200 μg) of the antibody solution per mouse was intraperitoneally injected twice a week. On day +56 after transplantation, the mice were sacrificed, and the skin, lung, liver, and large intestine were collected.
NOG mice were dissected, and then the skin, lung, liver, and large intestine on the back were excised, fixed in 10% formalin solution (Wako) at room temperature, and embedded in paraffin. Thereafter, a section having a thickness of 5 μm was prepared and placed on a glass slide, and stained with hematoxylin and eosin (H&E). In addition, in order to confirm the proliferation of collagen fibers, Azan-Mallory staining was performed. Images of the optical microscope were taken with an Olympus BX41 microscope (OLYMPUS, Tokyo, Japan) connected with an Olympus digital camera DP25, and CellSens software was used.

[4] = system: phosphorylation of AKT, JNK and EphA3 in HCC70 cells; assay: Western blotting of phosphorylation in HCC70 cells; type: cell-based, human; details: HCC70, IL-26 30 ng/ml or Ephrin A5 200 ng/ml, gefitinib 40 μM, FIG. 26
Description: To analyze the phosphorylation of AKT, ERK, p38, JNK, STAT3, and EphA3, E0771 cells and HCC70 cells in 100 mm dishes were stimulated with IL-26 ([…]) and an anti-EphA3 polyclonal antibody (pAb) (10 μg/ml) for a specified period of time. After stimulation, the cells were lysed with a 2% protease inhibitor mixture (Sigma-Aldrich) and/or RIPA buffer added with 1×PhosSTOP (Roche Diagnostics, Tokyo, Japan), and a lysate was separated in a reduced state by SDS-PAGE (15 μg/lane). Immunoblots were performed using an anti-phosphorylated AKT antibody, an anti-phosphorylated ERK antibody, an anti-phosphorylated p38 antibody, an anti-phosphorylated JNK antibody, an anti-phosphorylated STAT3 antibody, and an anti-phosphorylated EphA3 antibody that recognize both human and mouse antigens. For reprobing, the membrane was immersed in a stripping buffer. After the stripping procedure, the membranes were re-probed with anti-pan-AKT, anti-pan-ERK, anti-pan-p38, anti-pan-JNK, anti-pan-STAT3, and anti-pan-EphA3 antibodies recognizing both human and mouse antigens. Images were taken using a C-Digit Blot scanner (MS Techno Systems, Inc., Japan).

[5] = 200 μg per mouse i.p. twice a week from day 28, data not shown

| Molecule | inhibition of IL-26-enhanced expression of ICAM-1 (IL-26 [1]) | inhibitory effect of IL-26 (IL-26-promoted proliferation of HUVECs) (IL-26 [2]) | body weight loss [3, 5] | number of survival days [3, 5] | lung histopathology (inflammatory cell infiltration, fibrogenesis, collagen) [3] | lung histopathology (inflammatory cell infiltration, fibrogenesis, collagen) ([3]; listed as m69-10) | hair disorder (appearance) ([3]; eighth week of transplantation) | dephosphorylation of EphA3, activation of AKT and JNK phosphorylation [4] |
| --- | --- | --- | --- | --- | --- | --- | --- | --- |
| 69-10: mouse anti-human IL-26 monoclonal antibody, clone 69-10, from deposited hybridoma (antibody, V domains shown) VH: QVTLKESGPGILKPSQTLSLTCSFSGFSLSTSGMGVGWIRQPSGKGLEWLAHIWWDDDKYYNPSLKSQLTISKDTSRNQVFLKITSVDTADTATYYCVRGGITATHYYAMDYWGQGTSVTVSS VL: DIQMTQSPASQSASLGESVTISCLASQTIGTWLSWYQQKPGKSPQLLIYAATSLADGVPSRFSGSGSGTKFSFKISSLQAEDFVSYYCQQLYSSPWTFGGGTKLEIK | partially inhibited | not inferior to that of the commercially available goat anti-human IL-26 polyclonal antibody | clearly reduced | significantly prolonged | clearly reduced | suppression of inflammatory cell infiltration, reduction of fibrogenesis, and reduction of collagen deposition were remarkably observed | slightly suppressed | – |
| IL-26: recombinant human IL-26 dimers for cell stimulation, R&D Systems (protein) KHKQSSFTKSCYPRGTLSQAVDALYIKAAWLKATIPEDRIKNIRLLKKKTKKQFMKNCQFQEQLLSFFMEDVFGQLQLQGCKKIRFVEDFHSLRQKLSHCISCASSAREMKSITRMKRIFYRIGNKGIYKAISELDILLSWIKKLLESSQ | – | – | – | – | – | – | – | dephosphorylation of EphA3, activation of AKT and JNK phosphorylation |
